According to IntAct's records for PubMed 22653441:

B1: Serine/threonine-protein kinase PAK 4 (Homo sapiens), O96013 (parent)
chain: MFGKRKKRVEISAPSNFEHRVHTGFDQHEQKFTGLPRQWQSLIEESARRPKPLVDPACITSIQPGAPKTIVRGSKGAKDGALTLLLDEFENMSVTRSNSLRRDSPPPPARARQENGMPEEPATTARGGPGKAGSRGRFAGHSEAGGGSGDRRRAGPEKRPKSSREGSGGPQESSRDKRPLSGPDVGTPQPAGLASGAKLAAGRPFNTYPRADTDHPSRGAQGEPHDVAPNGPSAGGLAIPQSSSSSSRPPTRARGAPSPGVLGPHASEPQLAPPACTPAAPAVPGPPGPRSPQREPQRVSHEQFRAALQLVVDPGDPRSYLDNFIKIGEGSTGIVCIATVRSSGKLVAVKKMDLRKQQRRELLFNEVVIMRDYQHENVVEMYNSYLVGDELWVVMEFLEGGALTDIVTHTRMNEEQIAAVCLAVLQALSVLHAQGVIHRDIKSDSILLTHDGRVKLSDFGFCAQVSKEVPRRKSLVGTPYWMAPELISRLPYGPEVDIWSLGIMVIEMVDGEPPYFNEPPLKAMKMIRDNLPPRLKNLHKVSPSLKGFLDRLLVRDPAQRATAAELLKHPFLAKAGPPASIVPLMRQNRTR

Variants of: B1
Conditions: with cdc42_human CDC42, P60953
Chain of cdc42_human CDC42, P60953 (P60953 whole entry, looked up): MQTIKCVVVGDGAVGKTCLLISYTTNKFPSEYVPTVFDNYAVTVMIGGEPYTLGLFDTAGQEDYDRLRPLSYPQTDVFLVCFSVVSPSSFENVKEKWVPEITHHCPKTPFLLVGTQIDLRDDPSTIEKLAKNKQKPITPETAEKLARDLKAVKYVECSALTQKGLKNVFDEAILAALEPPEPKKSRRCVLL

effect of a mutation on the interaction	Variant
disrupting interaction	R48E
disrupting interaction	T60E
disrupting interaction	R49E
